B1: VEGFR-AntiIL6 (heavy chain of sequences 1A-2A-3H, light chain of sequence 4A) (bispecific antibody)
fusion: SDTGRPFVEMYSEIPEIIHMTEGRELVIPCRVTSPNITVTLKKFPLDTLIPDGKRIIWDSRKGFIISNATYKEIGLLTCEATVNGHLYKTNYLTHRQTNTIIDVVLSPSHGIELSVGEKLVLNCTARTELNVGIDFNWEYPSSKHQHKKLVNRDLKTQSGSEMKKFLSTLTIDGVTRSDQGLYTCAASSGLMTKKNSTFVRVHEKGGGGSGGGGSEVQLVESGGGLVQPGGSLRLSCAASGFTFSPFAISWVRQAPGKGLEWVAKISPGGSWTYYSDTVTDRFTFSLDTSKSTAYLQMNSLRAEDTAVYYCARQLWGYYALDVWGQGTLVTVSSASTKGPSVFPLAPSSKSTSGGTAALGCLVKDYFPEPVTVSWNSGALTSGVHTFPAVLQSSGLYSLSSVVTVPSSSLGTQTYICNVNHKPSNTKVDKKVEPKSCDKTHTCPPCPAPEAAGAPSVFLFPPKPKDTLMISRTPEVTCVVVDVSHEDPEVKFNWYVDGVEVHNAKTKPREEQYNSTYRVVSVLTVLHQDWLNGKEYKCKVSNKALPAPIEKTISKAKGQPREPQVYTLPPSREEMTKNQVSLTCLVKGFYPSDIAVEWESNGQPENNYKTTPPVLDSDGSFFLYSKLTVDKSRWQQGNVFSCSVMHEALHNHYTQKSLSCSPGK
light: DIQLTQSPSSLSASVGDRVTITCSASISVSYLYWYQQKPGKAPKLLIYDDSSLASGVPSRFSGSGSGTDFTLTISSLQPEDFATYYCQQWSGYPYTFGQGTKVEIKRTVAAPSVFIFPPSDEQLKSGTASVVCLLNNFYPREAKVQWKVDNALQSGNSQESVTEQDSKDSTYSLSSTLTLSKADYEKHKVYACEVTHQGLSSPVTKSFNRGEC
B2: anti-IL-6 antibody, heavy chain S35H, G66D, light chain M32L/M50D/N52S/M88Q (antibody, human IgG1, V domains shown)
VH: EVQLVESGGGLVQPGGSLRLSCAASGFTFSPFAMHWVRQAPGKGLEWVAKISPGGSWTYYSDTVTDRFTFSLDTSKSTAYLQMNSLRAEDTAVYYCARQLWGYYALDIWGQGTLVTVSS
VL: DIQLTQSPSSLSASVGDRVTITCSASISVSYLYWYQQKPGKAPKLLIYDDSSLASGVPSRFSGSGSGTDFTLTISSLQPEDFATYYCQQWSGYPYTFGQGTKVEIK
notes: engineered human IgG1 as m23; also called S35H G66D double mutant with mutagenized light chain
B3: anti-IL-6 antibody, heavy chain S35H, G66D, light chain wild-type (antibody, human IgG1, V domains shown)
VH: EVQLVESGGGLVQPGGSLRLSCAASGFTFSPFAMHWVRQAPGKGLEWVAKISPGGSWTYYSDTVTDRFTFSLDTSKSTAYLQMNSLRAEDTAVYYCARQLWGYYALDIWGQGTLVTVSS
VL: DIQLTQSPSSLSASVGDRVTITCSASISVSYMYWYQQKPGKAPKLLIYDMSNLASGVPSRFSGSGSGTDFTLTISSLQPEDFATYYCMQWSGYPYTFGQGTKVEIK
notes: engineered human IgG1 as m23; also called S35H G66D double mutant

Assays:
VEGF = VEGF (UniProt P15692-4 27-191, limits assumed); test: cell-based or functional assay
recombinant human IL-6 = biological target: T1, recombinant human IL-6 (human, UniProt P05231 30-212); test: Biacore at 37 C, antibody captured on Protein A, IL-6 as analyte
T1 construct: bought protein; also called interleukin-6
T1 sequence (P05231 30-212 limits assumed): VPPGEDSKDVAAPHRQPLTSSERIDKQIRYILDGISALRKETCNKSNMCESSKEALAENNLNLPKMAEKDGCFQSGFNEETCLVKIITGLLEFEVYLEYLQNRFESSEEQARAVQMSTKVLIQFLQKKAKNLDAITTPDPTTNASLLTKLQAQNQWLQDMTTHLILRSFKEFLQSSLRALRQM

Sequence of VEGF (P15692 other isoform, or with tags, fused parts or gaps limits assumed): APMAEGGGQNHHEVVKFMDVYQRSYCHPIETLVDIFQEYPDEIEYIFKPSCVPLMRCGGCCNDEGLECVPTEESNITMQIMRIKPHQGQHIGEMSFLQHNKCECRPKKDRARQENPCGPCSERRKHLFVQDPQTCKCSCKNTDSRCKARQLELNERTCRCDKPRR

Row | Binder | cell-based VEGF stimulated VEGFR reporter assay (KDR/VEGF HEK293 cells, luminescence), IC50 (VEGF) [nM] | fold increase in affinity relative to the wild-type heavy chain (recombinant human IL-6) [fold]
1 | B1 | 0.18 | –
2 | B2 | – | ~1.3
3 | B3 | – | ~2
